Measured values: article PMC6150654

Molecular target: Human PTH1 receptor with a His-tag (human) (UniProt Q03431)
Assay: QCM biosensor; PTH1R amine coupled to an LNB-carboxyl chip (Attana Cell 200); PTH injected at 4-20 ug/mL, 35 uL, 25 uL/min, dissociation 510 s; 20 °C; 10 mM HEPES, 150 mM NaCl, 0.005% Tween-20, pH 7.4; rate constant distributions (AIDA) and two-site model fitted to the sensorgrams one by one

Sequence of UniProt Q03431 (Q03431 27-593): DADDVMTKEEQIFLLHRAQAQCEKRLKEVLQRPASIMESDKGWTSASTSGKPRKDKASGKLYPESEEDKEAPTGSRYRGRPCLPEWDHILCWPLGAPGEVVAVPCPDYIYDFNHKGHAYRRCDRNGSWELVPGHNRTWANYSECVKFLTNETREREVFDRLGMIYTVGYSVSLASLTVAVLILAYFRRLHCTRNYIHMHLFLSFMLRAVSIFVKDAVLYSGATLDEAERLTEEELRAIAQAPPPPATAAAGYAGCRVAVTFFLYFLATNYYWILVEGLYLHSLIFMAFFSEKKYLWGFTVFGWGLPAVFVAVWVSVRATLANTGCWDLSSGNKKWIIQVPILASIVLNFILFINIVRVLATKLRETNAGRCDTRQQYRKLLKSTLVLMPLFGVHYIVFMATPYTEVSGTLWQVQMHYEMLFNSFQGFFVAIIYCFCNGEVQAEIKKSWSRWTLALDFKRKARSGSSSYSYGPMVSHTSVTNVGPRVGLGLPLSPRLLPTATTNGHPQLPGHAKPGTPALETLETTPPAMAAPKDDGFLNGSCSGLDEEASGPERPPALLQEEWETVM

Question: With parathyroid hormone (1-34) (peptide) as the substance, how does the log10(ka), both distributions of the RCD (4129 nM injection) read?
Answer: 4

Question: What about the log10(ka), first cluster (two-site fit) of the same substance?
Answer: 4.2

Question: What about the log10(ka), second cluster (two-site fit) of the same substance?
Answer: 3.7

Question: What about the log10(kd), first cluster (two-site fit) of the same substance?
Answer: -0.9

Question: And the log10(kd), one distribution of the RCD (4129 nM injection)?
Answer: -2

Question: And the log10(kd), other distribution of the RCD (4129 nM injection)?
Answer: -1

Question: And the log10(kd), second cluster (two-site fit)?
Answer: -2.3
